We go through 1 protein from article PMC6273018, “Effects of Flavonoids in Lysimachia clethroides Duby on the Activities of Cytochrome P450 CYP2E1 and CYP3A4 in Rat Liver Microsomes” (Molecules, 2016).

Substrate in this data set: O=[N+]([O-])c1ccc(O)cc1
The experiment in a line: cells, lysate or membranes named. As to conditions: other: Lineweaver-Burk plot; rat liver microsomes; pH 7.4. On the technique in general: Liver microsomes are a subcellular fraction often used to study metabolism.

Procedure: The rats were fasted for 12 h with free access to water and then sacrificed by cervical dislocation. The liver was removed promptly and washed with ice-cold physiological saline solution to yellowish brown. […] The liver homogenate solution was centrifuged at 4 °C for 20 min at 12,000 r·min^−1 and supernatant fraction was reserved. The supernatant per millilitre was added with 0.1 mL CaCl2 (88 mM), gently shaken and kept at 0 to 4 °C for 5 min. The mixed solution was transferred to centrifuge tubes and centrifuged at 4 °C for 30 min at 15,000 r·min^−1. […] Protein concentration of the microsomes was determined by the method of Bradford. […]
The apparent Km (Michaelis constant) value was calculated according to the Michaelis-Menten equation and Lineweaver-Burk plot.
Group 1 (normal control) was added with phosphate buffer, group 2 (flavonoids reagent group) were added with flavonoids, and group 3 was given clomethiazole as positive control. […] The concentrations of probe substrate metabolites were calculated from the standard curves. The percentage of inhibition was calculated using the formula: %Inhibition = ((A0 − A1)/A0) × 100%, in which A0 was the concentration of probe substrate metabolite of group 1 and A1 was the concentration of probe substrate metabolite of group 2 and 3. The IC50 values were calculated based on the concentration-effect linear regression curve.

B1: CYP2E1 (Rattus norvegicus) (protein)
chain: MAVLGITIALLVWVATLLVISIWKQIYNSWNLPPGPFPLPILGNIFQLDLKDIPKSFTKLAKRFGPVFTLHLGSRRIVVLHGYKAVKEVLLNHKNEFSGRGDIPVFQEYKNKGIIFNNGPTWKDVRRFSLSILRDWGMGKQGNEARIQREAQFLVEELKKTKGQPFDPTFLIGCAPCNVIADILFNKRFDYNDKKCLRLMSLFNENFYLLSTPWIQLYNNFADYLRYLPGSHRKIMKNVSEIKQYTLEKAKEHLQSLDINCARDVTDCLLIEMEKEKHSQEPMYTMENVSVTLADLFFAGTETTSTTLRYGLLILMKYPEIEEKLHEEIDRVIGPSRVPAVRDRLDMPYMDAVVHEIQRFINLVPSNLPHEATRDTVFQGYVIPKGTVVIPTLDSLLYDSHEFPDPEKFKPEHFLNENGKFKYSDYFKAFSAGKRVCVGEGLARMELFLLLSAILQHFNLKSLVDPKDIDLSPVTVGFGSIPPQFKLCVIPRS
As to B1, the Km (as a rule, the concentration of substrate that gives half-maximal velocity) came out at 90.92 µM.
